# Source: PMC6098094
# What was measured:
# Assay in all cases: two-hybrid; quantitative yeast two-hybrid, para-nitrophenyl-alpha-galactoside assay; interaction strength as percentage of wildtype GAL4BD-UBXD1; three independent experiments with five yeast transformands per condition
# Gal4BD-UBXD1ΔPUB = biological target: Gal4BD-UBXD1ΔPUB
# Gal4BD-UBXD1ΔUBX = biological target: Gal4BD-UBXD1ΔUBX
# Gal4BD-UBXD1ΔVIM = biological target: Gal4BD-UBXD1ΔVIM
substance,measurement,setting,value
Gal4AD-p97 (from UniProt P55072 1-806) (natural protein),interaction strength as percentage of wildtype GAL4BD-UBXD1 (% of wildtype GAL4BD-UBXD1),Gal4BD-UBXD1ΔPUB,13.8
same,interaction strength as percentage of wildtype GAL4BD-UBXD1 (% of wildtype GAL4BD-UBXD1),Gal4BD-UBXD1ΔUBX,29.2
same,interaction strength as percentage of wildtype GAL4BD-UBXD1 (% of wildtype GAL4BD-UBXD1),Gal4BD-UBXD1ΔVIM,8.1
